Measured values taken from paper PMC5509211 (2017).
No end group written: not given here.

Legend:
[1] = target: actin filaments (contractile ring) (Schizosaccharomyces pombe, UniProt P10989); assay: live-cell fluorescence titration
[2] = target: actin filaments (endocytic patches) (Schizosaccharomyces pombe, UniProt P10989); assay: live-cell fluorescence titration

- Kd [1]: 6.2 µM
- Kd [2]: 20 µM
B1: mEGFP-Lifeact (peptide)
chain: MGVADLIKKFESISKEE
modifications: also: mEGFP fusion
